The values below come from patent US20240336691A1 (PROMETHEUS BIOSCIENCES, published 2024).

Test [1] has as its target T1, TL1A in human blood (endogenous) (human, UniProt O95150 72-251, limits assumed).
T1 sequence (looked up): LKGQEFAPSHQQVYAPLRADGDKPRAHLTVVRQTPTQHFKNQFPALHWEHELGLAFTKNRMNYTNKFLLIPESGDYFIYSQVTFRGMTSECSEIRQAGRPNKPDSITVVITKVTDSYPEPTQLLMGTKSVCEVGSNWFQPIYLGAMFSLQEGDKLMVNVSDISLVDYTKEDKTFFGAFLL
Kind of test: cell-based or functional assay.

Test [2] concerns the target T2, TL1A produced by cynomolgus monkey PBMCs in whole blood (cynomolgus monkey, UniProt G7PRK8 72-251).
T2 sequence: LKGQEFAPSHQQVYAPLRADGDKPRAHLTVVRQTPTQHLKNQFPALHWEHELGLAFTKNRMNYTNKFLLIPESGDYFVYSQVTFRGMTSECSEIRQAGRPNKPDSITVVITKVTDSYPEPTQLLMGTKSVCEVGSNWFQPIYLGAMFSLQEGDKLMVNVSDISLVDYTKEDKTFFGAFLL
Kind of test: cell-based or functional assay.

Several values for one entry are separate records, joined by “and”; a condition that tells them apart may be missing. Equal entries are not always repeated.

B1: A212 (antibody, human IgG1, V domains shown)
VH: QVQLVQSGAEVKKPGASVKVSCKASGFDIQDTYMHWVRQRPGQGLEWIGRIDPASGHTKYDPKFQVRATITTDTSTSTAYLELSSLRSEDTAVYYCARSGGLPDVWGQGTTVTVSS
VL: EIVLTQSPGTLSLSPGERATLSCRASSSVSYMYWYQQKPGQAPRPLIYATSNLASGIPDRFSGSGSGTDFTLTISRLEPEDFAVYYCQQWEGNPRTFGGGTKLEIK
Regarding B1, in test [1], the % Inhibition (in general, the share of the control response that was lost under treatment) at 1 nM Ig of interferon gamma release in human blood came to 46.8% and the “% Inhibition at 10 nM Ig of interferon gamma release in human blood” value (“% Inhibition at 10 nM Ig” for short) came out at 71.2%.

B2: anti-TL1A antibody A219 (antibody, V domains shown)
VH: QVQLVQSGAEVKKPGASVKVSCKASGFDIQDTYMHWVKQRPGQGLEWMGRIDPASGHTKYDPKFQVRVTITRDTSTSTVYLELSSLRSEDTAVYYCARSGGLPDVWGQGTTVTVSS
VL: EIVLTQSPGTLSLSPGERATLSCRASSSVSYMYWYQQKPGQAPRPLIYATSNLASGIPDRFSGSGSGTDFTLTISRLEPEDFAVYYCQQWEGNPRTFGGGTKLEIK
For B2, the “mean IC50 for the inhibition of the IFN-γ response in monkey whole blood” value in test [2] was 1.54 nM and 289 ng/mL.

B3: A147 (antibody, human IgG1, V domains shown)
VH: QVQLVQSGAEVKKPGASVKVSCKASGFDIQDTYMHWVKQRPGQGLEWMGRIEPASGHIKYDPKFQGRVTMTRDTSTSTVYMELSSLRSEDTAVYYCARSGGLPDWWGQGTTVTVSS
VL: EIVLTQSPGTLSLSPGERATLSCRASSSVSYMYWYQQKPGQAPRPLIYATSNLASGIPDRFSGSGSGTDFTLTISRLEPEDFAVYYCQQWEGNPRTFGGGTKLEIK
As for B3, in test [1], the “% Inhibition at 1 nM Ig of interferon gamma release in human blood” value (“% Inhibition at 1 nM Ig” below) turned out to be 51.3% and the “% Inhibition at 10 nM Ig” value was found to be 72.4%.

B4: A217 (antibody, human IgG1, V domains shown)
VH: QVQLVQSGAEVKKPGASVKVSCKASGFDIQDTYMHWVKQRPGQGLEWMGRIDPASGHTKYDPKFQVRVTITRDTSTSTVYMELSSLRSEDTAVYYCARSGGLPDVWGQGTTVTVSS
VL: EIVLTQSPGTLSLSPGERATLSCRASSSVSYMYWYQQKPGQAPRPLIYATSNLASGIPDRFSGSGSGTDFTLTISRLEPEDFAVYYCQQWEGNPRTFGGGTKLEIK
For B4, in test [1], the “% Inhibition at 1 nM Ig” value was determined as 46% and the “% Inhibition at 10 nM Ig” value worked out at 72.2%.

B5: A220 (antibody, human IgG1, V domains shown)
VH: QVQLVQSGAEVKKPGASVKVSCKASGFDIQDTYMHWVKQRPGQGLEWMGRIDPASGHTKYDPKFQVRVTMTRDTSTSTAYLELSSLRSEDTAVYYCARSGGLPDVWGQGTTVTVSS
VL: EIVLTQSPGTLSLSPGERATLSCRASSSVSYMYWYQQKPGQAPRPWIYATSNLASGIPDRFSGSGSGTDFTLTISRLEPEDFAVYYCQQWEGNPRTFGGGTKLEIK
Consider B5, for which, in test [1], the “% Inhibition at 1 nM Ig” value worked out at 36.9% and the “% Inhibition at 10 nM Ig” value was 63.2%.

B6: A219 (antibody, V domains shown)
VH: QVQLVQSGAEVKKPGASVKVSCKASGFDIQDTYMHWVKQRPGQGLEWMGRIDPASGHTKYDPKFQVRVTITRDTSTSTVYLELSSLRSEDTAVYYCARSGGLPDVWGQGTTVTVSS
VL: EIVLTQSPGTLSLSPGERATLSCRASSSVSYMYWYQQKPGQAPRPLIYATSNLASGIPDRFSGSGSGTDFTLTISRLEPEDFAVYYCQQWEGNPRTFGGGTKLEIK
For the molecule B6, in test [1], the “% Inhibition at 1 nM Ig” value amounted to 59.8% and the “% Inhibition at 10 nM Ig” value worked out at 75.2%.

B7: A213 (antibody, human IgG1, V domains shown)
VH: QVQLVQSGAEVKKPGASVKVSCKASGFDIQDTYMHWVRQRPGQGLEWMGRIDPASGHTKYDPKFQVRVTITTDTSTSTVYMELSSLRSEDTAVYYCARSGGLPDVWGQGTTVTVSS
VL: EIVLTQSPGTLSLSPGERATLSCRASSSVSYMYWYQQKPGQAPRPLIYATSNLASGIPDRFSGSGSGTDFTLTISRLEPEDFAVYYCQQWEGNPRTFGGGTKLEIK
B7: in test [1], the “% Inhibition at 1 nM Ig” value stood at 48.6% and the “% Inhibition at 10 nM Ig” value worked out at 69.8%.
